From US20200157236A1 (CELLDEX THERAPEUTICS, published 2020)

Biological target: T1, purified ALK protein (BLitz, Table 20) (Homo sapiens (Human), UniProt Q9UM73 19-1038, limits assumed)
T1 construct: also called purified ALK proteins
Assay: BLI (BLitz), mAb on Protein A tip, purified ALK in solution
Protocol: Kinetic measurements of the monovalent affinity of the 96 humanized ALK antibody variants (Ab351-Ab446) were collected. Affinity ranking was performed using a BLitz® System (ForteBio, Menlo Park, Calif.). Humanized anti-ALK antibodies were immobilized at 0.5 mg/mL using Protein A tips. Once baseline stability was ensured, purified ALK proteins at 70 μg/mL were added. The resulting kinetic data were fit to a single binding site equation, from which the quoted monovalent KD values were derived.

T1 sequence (Q9UM73 19-1038 limits assumed): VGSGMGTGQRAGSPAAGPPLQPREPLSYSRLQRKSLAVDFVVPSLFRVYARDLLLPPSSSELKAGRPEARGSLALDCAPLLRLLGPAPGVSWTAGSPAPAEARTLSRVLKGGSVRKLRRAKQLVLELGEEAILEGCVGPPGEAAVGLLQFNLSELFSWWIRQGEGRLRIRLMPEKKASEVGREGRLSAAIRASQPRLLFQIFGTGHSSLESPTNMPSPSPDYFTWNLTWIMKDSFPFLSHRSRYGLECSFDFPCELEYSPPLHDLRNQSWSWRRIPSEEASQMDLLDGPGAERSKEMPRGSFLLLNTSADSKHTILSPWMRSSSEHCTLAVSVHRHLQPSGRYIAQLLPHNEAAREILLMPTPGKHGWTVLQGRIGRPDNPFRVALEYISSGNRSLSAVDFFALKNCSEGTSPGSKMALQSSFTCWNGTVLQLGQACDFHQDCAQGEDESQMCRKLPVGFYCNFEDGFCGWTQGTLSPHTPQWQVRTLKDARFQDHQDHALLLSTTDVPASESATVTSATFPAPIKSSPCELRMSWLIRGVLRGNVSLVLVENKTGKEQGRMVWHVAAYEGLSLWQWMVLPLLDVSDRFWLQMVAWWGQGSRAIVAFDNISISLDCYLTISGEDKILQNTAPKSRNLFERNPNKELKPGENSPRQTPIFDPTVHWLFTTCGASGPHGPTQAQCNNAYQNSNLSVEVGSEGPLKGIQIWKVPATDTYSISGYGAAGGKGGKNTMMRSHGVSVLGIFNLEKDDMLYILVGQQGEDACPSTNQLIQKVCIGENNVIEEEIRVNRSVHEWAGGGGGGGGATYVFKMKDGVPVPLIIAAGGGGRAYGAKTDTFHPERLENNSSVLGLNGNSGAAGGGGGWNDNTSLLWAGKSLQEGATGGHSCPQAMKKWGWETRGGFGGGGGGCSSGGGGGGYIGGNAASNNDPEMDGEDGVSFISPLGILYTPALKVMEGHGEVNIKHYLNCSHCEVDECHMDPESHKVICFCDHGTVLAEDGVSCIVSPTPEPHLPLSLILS

| Kd [nM] | Binder |
| --- | --- |
| 141 | Ab382 (antibody, V domains shown, humanized) VH: EVQLVQSGAEVKKPGASVKLSCKASGYTFTSYWMHWVRQAPGQGLEWIGYIKPSSGYTKYAQKLQGRVTLTADKSTSTAYMELRSLRSDDTAVYYCARDYYGSSSWFAYWGQGTLVTVSS VL: EIVMTQSPAFMSVTVGEKVTITCKASQNVGTNVAWYQQKPDQSPKALIYSASYRYSGVPSRFSGSGSGTDFTLTISSLEAEDAATYYCQQYNSYPYMYTFGQGTKLEIK |
| 233 | Ab420 (antibody, V domains shown, humanized) VH: EVQLVQSGAEVKKPGSSVKLSCKASGYTFTSYWMHWVRQAPGQGLEWIGYIKPSSGYTKYNQKFKDKATLTADKSTSTAYMELSSLRSEDTAVYYCARDYYGSSSWFAYWGQGTLVTVSS VL: EIVMTQSQATLSTSPGERATLSCKASQNVGTNVAWYQQKPGQAPRALIYSASYRYSGVPARFSGSGSGTDFTLTISSVEPEDFAVYYCQQYNSYPYMYTFGQGTKLEIK |
| 176 | Ab396 (antibody, V domains shown, humanized) VH: EVQLVQSGAEVKKPGSSVKLSCKASGYTFTSYWMHWVRQAPGQGLEWIGYIKPSSGYTKYNQKFKDKATLTADKSTSTAYMELSSLRSEDTAVYYCARDYYGSSSWFAYWGQGTLVTVSS VL: EIVMTQSPATLSTSPGERATLSCKASQNVGTNVAWYQQKPGQAPRALIYSASYRYSGVPARFSGSGSGTDFTLTISSVEPEDFAVYYCQQYNSYPYMYTFGQGTKLEIK |
| 132 | Ab395 (antibody, V domains shown, humanized) VH: QVQLVQSGAEVAKPGSSVKLSCKASGYTFTSYWMHWVKQAPGQGLEWIGYIKPSSGYTKYNQKFKDKATLTADKSTSTAYMELSSLRSEDTAVYYCARDYYGSSSWFAYWGQGTLVTVSS VL: EIVMTQSPATLSTSPGERATLSCKASQNVGTNVAWYQQKPGQAPRALIYSASYRYSGVPARFSGSGSGTDFTLTISSVEPEDFAVYYCQQYNSYPYMYTFGQGTKLEIK |
| 186 | Ab393 (antibody, V domains shown, humanized) VH: EVQLVQSGAEVAKPGASVKLSCKASGYTFTSYWMHWVRQAPGQGLEWIGYIKPSSGYTKYNQKFKDKATLTADKSTSTAYMELRSLRSDDTAVYYCARDYYGSSSWFAYWGQGTLVTVSS VL: EIVMTQSPATLSTSPGERATLSCKASQNVGTNVAWYQQKPGQAPRALIYSASYRYSGVPARFSGSGSGTDFTLTISSVEPEDFAVYYCQQYNSYPYMYTFGQGTKLEIK |
| 175 | Ab391 (antibody, V domains shown, humanized) VH: QVQLVQSGAEVAKPGASVKLSCKASGYTFTSYWMHWVKQAPGQGLEWIGYIKPSSGYTKYNQKFKDKATLTADKSTSTAYMELRSLRSDDTAVYYCARDYYGSSSWFAYWGQGTLVTVSS VL: EIVMTQSPATLSTSPGERATLSCKASQNVGTNVAWYQQKPGQAPRALIYSASYRYSGVPARFSGSGSGTDFTLTISSVEPEDFAVYYCQQYNSYPYMYTFGQGTKLEIK |
| 108 | Ab388 (antibody, V domains shown, humanized) VH: EVQLVQSGPEVKKPGTSVKLSCKASGYTFTSYWMHWVRQARGQRLEWIGYIKPSSGYTKYNQKFKDRATLTADKSTSTAYMELSSLRSEDTAVYYCARDYYGSSSWFAYWGQGTLVTVSS VL: EIVMTQSPATLSTSPGERATLSCKASQNVGTNVAWYQQKPGQAPRALIYSASYRYSGVPARFSGSGSGTDFTLTISSVEPEDFAVYYCQQYNSYPYMYTFGQGTKLEIK |
| 1550 | Ab389 (antibody, V domains shown, humanized) VH: EVQLVQSGAEVKKPGTSVKLSCKASGYTFTSSAMQWVKQAPGQGLEWIGYIKPSSGYTKYNQKFKDKATLTADKSTSTAYMELSSLRSEDTAVYYCARDYYGSSSWFAYWGQGTLVTVSS VL: EIVMTQSPATLSTSPGERATLSCKASQNVGTNVAWYQQKPGQAPRALIYSASYRYSGVPARFSGSGSGTDFTLTISSVEPEDFAVYYCQQYNSYPYMYTFGQGTKLEIK |
| 288 | Ab390 (antibody, V domains shown, humanized) VH: EVQLVQSGAEVKKPGTSVKLSCKASGYTFTSYWMHWVRQARGQRLEWIGYIKPSSGYTKYAQKFQERVTLTADKSTSTAYMELSSLRSEDTAVYYCARDYYGSSSWFAYWGQGTLVTVSS VL: EIVMTQSPATLSTSPGERATLSCKASQNVGTNVAWYQQKPGQAPRALIYSASYRYSGVPARFSGSGSGTDFTLTISSVEPEDFAVYYCQQYNSYPYMYTFGQGTKLEIK |
| 157 | Ab394 (antibody, V domains shown, humanized) VH: EVQLVQSGAEVKKPGASVKLSCKASGYTFTSYWMHWVRQAPGQGLEWIGYIKPSSGYTKYAQKLQGRVTLTADKSTSTAYMELRSLRSDDTAVYYCARDYYGSSSWFAYWGQGTLVTVSS VL: EIVMTQSPATLSTSPGERATLSCKASQNVGTNVAWYQQKPGQAPRALIYSASYRYSGVPARFSGSGSGTDFTLTISSVEPEDFAVYYCQQYNSYPYMYTFGQGTKLEIK |
| 626 | Ab385 (antibody, V domains shown, humanized) VH: EVQLVQSGAEVKKPGSSVKVSCKASGYTFSSYWMHWVRQAPGQGLEWIGYIKPSSGYTKYNQKFKDKATLTADKSTSTAYMELSSLRSEDTAVYYCARDYYGSSSWFAYWGQGTLVTVSS VL: EIVMTQSPAFMSVTVGEKVTITCKASQNVGTNVAWYQQKPDQSPKALIYSASYRYSGVPSRFSGSGSGTDFTLTISSLEAEDAATYYCQQYNSYPYMYTFGQGTKLEIK |
| 378 | Ab397 (antibody, V domains shown, humanized) VH: EVQLVQSGAEVKKPGSSVKVSCKASGYTFSSYWMHWVRQAPGQGLEWIGYIKPSSGYTKYNQKFKDKATLTADKSTSTAYMELSSLRSEDTAVYYCARDYYGSSSWFAYWGQGTLVTVSS VL: EIVMTQSPATLSTSPGERATLSCKASQNVGTNVAWYQQKPGQAPRALIYSASYRYSGVPARFSGSGSGTDFTLTISSVEPEDFAVYYCQQYNSYPYMYTFGQGTKLEIK |
| 257 | Ab386 (antibody, V domains shown, humanized) VH: EVQLVQSGAEVKKPGSSVKLSCKASGYTFSSYWMHWVKQAPGQGLEWIGYIKPSSGYTKYAQKFQGRVTLTADKSTSTAYMELSSLRSEDTAVYYCARDYYGSSSWFAYWGQGTLVTVSS VL: EIVMTQSPAFMSVTVGEKVTITCKASQNVGTNVAWYQQKPDQSPKALIYSASYRYSGVPSRFSGSGSGTDFTLTISSLEAEDAATYYCQQYNSYPYMYTFGQGTKLEIK |
| 158 | Ab387 (antibody, V domains shown, humanized) VH: QVQLVQSGAEVAKPGTSVKLSCKASGYTFTSYWMHWVKQAPGQGLEWIGYIKPSSGYTKYNQKFKDKVTLTADKSTSTAYMELSSLRSEDTAVYYCARDYYGSSSWFAYWGQGTLVTVSS VL: EIVMTQSPATLSTSPGERATLSCKASQNVGTNVAWYQQKPGQAPRALIYSASYRYSGVPARFSGSGSGTDFTLTISSVEPEDFAVYYCQQYNSYPYMYTFGQGTKLEIK |
| 179 | Ab392 (antibody, V domains shown, humanized) VH: EVQLVQSGAEVKKPGASVKLSCKASGYTFTSYWMHWVRQAPGQGLEWIGYIKPSSGYTKYNQKFKDKATLTADKSTSTAYMELRSLRSDDTAVYYCARDYYGSSSWFAYWGQGTLVTVSS VL: EIVMTQSPATLSTSPGERATLSCKASQNVGTNVAWYQQKPGQAPRALIYSASYRYSGVPARFSGSGSGTDFTLTISSVEPEDFAVYYCQQYNSYPYMYTFGQGTKLEIK |
| 132 | Ab383 (antibody, V domains shown, humanized) VH: QVQLVQSGAEVAKPGSSVKLSCKASGYTFTSYWMHWVKQAPGQGLEWIGYIKPSSGYTKYNQKFKDKATLTADKSTSTAYMELSSLRSEDTAVYYCARDYYGSSSWFAYWGQGTLVTVSS VL: EIVMTQSPAFMSVTVGEKVTITCKASQNVGTNVAWYQQKPDQSPKALIYSASYRYSGVPSRFSGSGSGTDFTLTISSLEAEDAATYYCQQYNSYPYMYTFGQGTKLEIK |
